Assay results: paper PMC9204493

What was measured:
Assay in all cases: SEC-MALS; Superose 6 Increase 10/300, 1x PBS pH 7.4, 0.4 mL/min, non-denaturing; self-assembly of the fusion protein into the nanoparticle
[1] = target: Encapsulin-pH1HA10 (Myxococcus xanthus) (UniProt Q1D6H4)
[2] = target: pH1HA10-Ferritin (Helicobacter pylori) (UniProt Q9ZLI1)
[3] = target: MsDps2-pH1HA10 (Mycobacterium smegmatis)

## Encapsulin-pH1HA10 (from UniProt Q1D6H4 1-287)
[1]
  stoichiometry N: 180

## pH1HA10-Ferritin (from UniProt Q9ZLI1 1-163)
[2]
  stoichiometry N: 24

## MsDps2-pH1HA10
[3]
  stoichiometry N: 12
